Assay results published in paper PMC10945830.

Biological target: Anthopleura YFP (AnthoYFP) from Neon Anthopleura sola (Anthopleura sola (endogenous in tentacles))
Assay: SEC-MALS; isolated AnthoYFP pigment; self-association, tetramer; conditions of the SEC-MALS run not told in the main text

Work on “Anthopleura YFP (AnthoYFP) from Neon Anthopleura sola (natural protein)” yielded a stoichiometry N of 4.
